Measurements: paper PMC11965572
Where “and” joins values, the source holds several entries; their conditions need not be identical. Equal values may be shown once.

Target: wild-type human ACE2-Fc (human) (UniProt Q9BYF1)
Assay: SEC; protein A-purified wild-type ACE2-Fc fractionated on a Superdex 200 column

## wild-type human ACE2-Fc (from UniProt Q9BYF1 18-728) (Fc fusion)
  percent as higher oligomers: 18%
  percent as tetramers: 9%
  percent in a dimeric state: 73%
  stoichiometry N: 2 and 4
